According to article PMC3691308:
pKd: −log10 of the molar value.

Tests used:
[1] = molecular target: Leishmania braziliensis Hsp90 (LbHsp90) (Leishmania braziliensis)
[2] = molecular target: Leishmania braziliensis Hsp90 (LbHsp90) (Leishmania braziliensis); assay: ITC; LbAha1 (130–150 µM) injected into LbHsp90 (around 5.5 µM, as dimers); 40 mM HEPES pH 7.5, 5 mM KCl; 20°C; One Set of Sites fit; apparent enthalpy

stimulation of LbHsp90 ATPase activity (1 µM dimer, 0.5 mM ATP, 37°C) by increasing LbAha1 (0–20 µM in the methods, 0–16 µM in the legend); relative ATPase activity [1]: 10 fold
pKd [2]: 6.00
dH [2]: -18000 cal/mol
stoichiometry N (LbAha1 per LbHsp90 dimer) [2]: 2
Substance: Leishmania braziliensis Activator of Hsp90 ATPase 1 (LbAha1) (natural protein)
